Test results published in patent US20180327506A1 (AbbVie / Abbott, published 2018).

Assays:
[1] = biological target: T1, full-length mature cynomolgus EMR2 (residues Q24-N816) with N-terminal aspartic acid/lysine epitope tag, … (cynomolgus monkey (Macaca fascicularis), UniProt A0A2K5WL23 21-816); assay: flow cytometry on transduced HEK293T; 293 naive MFI 269
T1 construct: whole, on cells; also called cEMR2; cEMR2-NFlag
T1 sequence: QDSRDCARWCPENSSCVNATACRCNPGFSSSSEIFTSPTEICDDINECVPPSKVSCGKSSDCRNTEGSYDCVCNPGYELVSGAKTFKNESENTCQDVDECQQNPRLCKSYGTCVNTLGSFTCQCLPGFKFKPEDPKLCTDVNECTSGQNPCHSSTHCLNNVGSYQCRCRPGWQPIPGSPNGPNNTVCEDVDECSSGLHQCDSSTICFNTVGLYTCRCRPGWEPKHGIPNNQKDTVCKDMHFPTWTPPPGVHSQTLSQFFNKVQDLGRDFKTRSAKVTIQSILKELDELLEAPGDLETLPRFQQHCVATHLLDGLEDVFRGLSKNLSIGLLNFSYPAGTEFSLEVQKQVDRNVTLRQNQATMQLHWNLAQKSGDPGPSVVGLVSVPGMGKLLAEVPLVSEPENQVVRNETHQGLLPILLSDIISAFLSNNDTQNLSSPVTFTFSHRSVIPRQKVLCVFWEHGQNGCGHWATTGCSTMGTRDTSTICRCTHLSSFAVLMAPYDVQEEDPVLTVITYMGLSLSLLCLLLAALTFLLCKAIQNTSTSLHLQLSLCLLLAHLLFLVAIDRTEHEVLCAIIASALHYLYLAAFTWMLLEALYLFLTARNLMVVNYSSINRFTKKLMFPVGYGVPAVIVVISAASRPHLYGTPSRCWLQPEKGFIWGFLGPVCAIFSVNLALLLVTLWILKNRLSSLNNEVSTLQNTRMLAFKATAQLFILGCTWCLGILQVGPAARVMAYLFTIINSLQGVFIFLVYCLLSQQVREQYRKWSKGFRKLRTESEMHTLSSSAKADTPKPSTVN
Protocol: (§1) The exemplary antibodies were also tested using flow cytometry to determine their ability to associate with hEMR2, cEMR2 and CD97 expressed on the surface of cells.

[2] = biological target: T2, full-length mature human CD97 (residues Q21-I845) with N-terminal aspartic acid/lysine epitope tag, … (human, UniProt P48960 21-835); assay: as above
T2 construct: whole, on cells; also called hCD97; hCD97-NFlag
T2 sequence (looked up): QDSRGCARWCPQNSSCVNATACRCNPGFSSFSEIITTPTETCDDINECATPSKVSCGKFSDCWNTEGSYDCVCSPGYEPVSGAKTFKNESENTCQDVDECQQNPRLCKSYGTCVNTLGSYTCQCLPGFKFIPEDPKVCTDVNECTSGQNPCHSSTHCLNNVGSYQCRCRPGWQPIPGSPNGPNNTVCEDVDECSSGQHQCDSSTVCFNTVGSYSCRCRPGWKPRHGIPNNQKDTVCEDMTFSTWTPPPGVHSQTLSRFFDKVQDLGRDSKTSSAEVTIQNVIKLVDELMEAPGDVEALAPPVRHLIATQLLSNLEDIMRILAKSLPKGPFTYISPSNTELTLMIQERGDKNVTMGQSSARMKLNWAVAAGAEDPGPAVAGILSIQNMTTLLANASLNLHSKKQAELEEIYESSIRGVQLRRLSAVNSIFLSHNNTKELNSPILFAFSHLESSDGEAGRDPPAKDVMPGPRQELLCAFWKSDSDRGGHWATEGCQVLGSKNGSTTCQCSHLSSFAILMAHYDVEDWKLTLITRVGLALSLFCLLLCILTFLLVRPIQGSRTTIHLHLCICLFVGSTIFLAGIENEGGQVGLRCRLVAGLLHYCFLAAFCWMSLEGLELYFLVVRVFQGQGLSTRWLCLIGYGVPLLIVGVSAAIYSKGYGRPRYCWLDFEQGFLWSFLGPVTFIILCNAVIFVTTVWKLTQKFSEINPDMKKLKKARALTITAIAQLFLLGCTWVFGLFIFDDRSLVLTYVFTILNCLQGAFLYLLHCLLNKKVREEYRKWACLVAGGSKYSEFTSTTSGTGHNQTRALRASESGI
Protocol: as §1

[3] = biological target: T3, full-length mature human EMR2 (residues Q24-N823) with N-terminal aspartic acid/lysine epitope tag, … (human, UniProt Q9UHX3 24-823); assay: as above
T3 construct: Built from NM_013447; The IgK signal peptide is not part of the mature protein; also called hEMR2; hEMR2-NFlag
T3 sequence: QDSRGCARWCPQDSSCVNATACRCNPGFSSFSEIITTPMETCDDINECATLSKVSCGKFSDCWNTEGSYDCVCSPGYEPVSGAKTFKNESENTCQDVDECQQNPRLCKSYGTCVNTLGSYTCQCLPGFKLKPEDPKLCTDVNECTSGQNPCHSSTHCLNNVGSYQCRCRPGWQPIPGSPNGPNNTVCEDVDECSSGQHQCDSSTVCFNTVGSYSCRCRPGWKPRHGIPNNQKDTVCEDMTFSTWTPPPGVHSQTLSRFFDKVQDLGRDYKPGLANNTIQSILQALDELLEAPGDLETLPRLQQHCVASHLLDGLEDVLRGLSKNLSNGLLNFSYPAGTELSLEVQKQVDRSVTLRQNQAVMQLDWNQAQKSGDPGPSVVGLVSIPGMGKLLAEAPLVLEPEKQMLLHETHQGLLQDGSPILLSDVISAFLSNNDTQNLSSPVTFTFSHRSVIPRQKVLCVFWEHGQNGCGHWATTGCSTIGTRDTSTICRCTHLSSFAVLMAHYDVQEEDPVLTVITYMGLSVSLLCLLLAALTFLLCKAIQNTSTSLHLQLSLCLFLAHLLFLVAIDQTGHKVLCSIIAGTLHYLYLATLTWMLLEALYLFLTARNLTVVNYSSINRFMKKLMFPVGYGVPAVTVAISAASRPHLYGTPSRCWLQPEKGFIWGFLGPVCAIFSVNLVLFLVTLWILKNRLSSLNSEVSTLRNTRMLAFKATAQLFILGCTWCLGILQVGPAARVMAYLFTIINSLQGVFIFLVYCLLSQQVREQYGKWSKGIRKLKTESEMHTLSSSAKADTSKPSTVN
Protocol: as §1

[4] = biological target: T1, full-length mature cynomolgus EMR2 …; assay: cell-based or functional assay
[5] = biological target: T2, full-length mature human CD97 (residues …); assay: cell-based or functional assay
[6] = biological target: T3, full-length mature human EMR2 (residues …); assay: cell-based or functional assay
[7] = biological target: T1, full-length mature cynomolgus EMR2 …; assay: flow cytometry on transduced HEK293T; 293 naive MFI 109
Protocol: as §1

[8] = biological target: T2, full-length mature human CD97 (residues …); assay: as above
Protocol: as §1

[9] = biological target: T3, full-length mature human EMR2 (residues …); assay: as above
Protocol: as §1

[10] = biological target: T4, human EMR2 as naturally expressed on primary and PDX tumor cells, blood and bone marrow cells and hematologic … (human, UniProt Q9UHX3 24-823); assay: flow cytometry on AML16-p4 PDX cells, against isotype control
T4 construct: Endogenous protein; also called hEMR2; CD312
T4 sequence: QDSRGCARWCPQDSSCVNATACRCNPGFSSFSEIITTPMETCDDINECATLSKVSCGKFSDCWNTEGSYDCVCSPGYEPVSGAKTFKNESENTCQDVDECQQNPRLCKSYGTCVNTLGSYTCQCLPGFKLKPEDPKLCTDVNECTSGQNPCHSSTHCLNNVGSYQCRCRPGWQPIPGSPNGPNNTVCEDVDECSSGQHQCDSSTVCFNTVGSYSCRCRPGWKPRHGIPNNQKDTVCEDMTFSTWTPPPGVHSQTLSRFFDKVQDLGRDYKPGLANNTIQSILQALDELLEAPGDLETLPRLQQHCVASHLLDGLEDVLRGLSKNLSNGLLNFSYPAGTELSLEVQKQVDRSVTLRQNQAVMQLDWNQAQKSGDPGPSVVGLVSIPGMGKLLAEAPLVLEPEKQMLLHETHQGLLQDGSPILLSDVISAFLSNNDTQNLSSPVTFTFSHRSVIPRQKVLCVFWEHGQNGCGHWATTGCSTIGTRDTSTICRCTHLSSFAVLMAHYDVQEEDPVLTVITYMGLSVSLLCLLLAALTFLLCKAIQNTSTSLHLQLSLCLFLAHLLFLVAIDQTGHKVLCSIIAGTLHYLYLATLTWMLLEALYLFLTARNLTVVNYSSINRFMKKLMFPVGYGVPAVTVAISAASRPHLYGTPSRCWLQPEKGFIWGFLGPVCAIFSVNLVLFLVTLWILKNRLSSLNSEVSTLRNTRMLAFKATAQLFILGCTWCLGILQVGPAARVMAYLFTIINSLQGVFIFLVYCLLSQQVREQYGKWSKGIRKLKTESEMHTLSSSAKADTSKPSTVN
Protocol: (§2) AML PDX samples were harvested by extracting both femora and tibiae from a mouse. After removing any attached muscle tissue the bones were combined and grinded up using a mortar and pistil to release the bone marrow from the rest of the bone. Cell suspensions were harvested and red blood cells lysed by exposure to a hypotonic ammonium-chloride-potassium solution (ACK). After 5 min incubation on ice the red blood cell lysis was stopped by adding 2% fetal bovine serum in PBS buffer (FSM), cells harvested by centrifugation and any tissue debris filtered out using a nylon mesh. Primary human AML samples were obtained cryopreserved as Ficol isolated mononuclear cells, thawed, washed once in FSM and used for analysis. Single cell suspensions were incubated with 4′,6-diamidino-2-phenylindole (DAPI) to detect dead cells, anti-human CD45 and CD33 to identify human leukemic cells. […] In order to partition bulk AML leukemic populations into NTG and CSC subpopulations, the PDX tumor cells were further incubated with anti-human CD34 and CD38 or candidate AML CSC markers.

[11] = biological target: T4, human EMR2 as naturally expressed on …; assay: flow cytometry on AML33p0 cells, against isotype control
Protocol: as §2

[12] = biological target: T4, human EMR2 as naturally expressed on …; assay: flow cytometry on AML37p0 cells, against isotype control
Protocol: as §2

[13] = biological target: T1, full-length mature cynomolgus EMR2 …; assay: flow cytometry on transduced HEK293T; 293 naive MFI 143
Protocol: as §1

[14] = biological target: T2, full-length mature human CD97 (residues …); assay: as above
Protocol: as §1

[15] = biological target: T3, full-length mature human EMR2 (residues …); assay: as above
Protocol: as §1

[16] = biological target: T4, human EMR2 as naturally expressed on …; assay: flow cytometry on AML20p4 PDX cells, against isotype control
Protocol: as §2

[17] = biological target: T4, human EMR2 as naturally expressed on …; assay: flow cytometry on AML23p2 PDX cells, against isotype control
Protocol: as §2

[18] = biological target: T4, human EMR2 as naturally expressed on …; assay: flow cytometry on AML40p0 cells, against isotype control
Protocol: AML PDX samples were harvested by extracting both femora and tibiae from a mouse. After removing any attached muscle tissue the bones were combined and grinded up using a mortar and pistil to release the bone marrow from the rest of the bone. Cell suspensions were harvested and red blood cells lysed by exposure to a hypotonic ammonium-chloride-potassium solution (ACK). After 5 min incubation on ice the red blood cell lysis was stopped by adding 2% fetal bovine serum in PBS buffer (FSM), cells harvested by centrifugation and any tissue debris filtered out using a nylon mesh. Primary human AML samples were obtained cryopreserved as Ficol isolated mononuclear cells, thawed, washed once in FSM and used for analysis. Single cell suspensions were incubated with 4′,6-diamidino-2-phenylindole (DAPI) to detect dead cells, anti-human CD45 and CD33 to identify human leukemic cells. The resulting single cell suspensions comprised a bulk sample of tumor and non-tumor cells including both NTG cells and CSCs. In order to partition bulk AML leukemic populations into NTG and CSC subpopulations, the PDX tumor cells were further incubated with anti-human CD34 and CD38 or candidate AML CSC markers.

B1: SC93.255 (antibody, V domains shown)
VH: QVQLQQSDAELVKPGSSVKISCKVSGFTFTDHTIHWMKQRPEQGLEWIGYIYPRDGNTKYNEKFTGKATLTADRSSSTAYMQLNSLTSEDSAVYFCASSNWAQWYFDIWGTGTTVTVSS
VL: DIQMTQSSSYLSVSLGGRVTITCKASDHINNWLAWYQQKPGNAPRLLIFGATSLETGVPSRFSGSGSGKDYTLSITSLQSEDVGTYYCQQYWSIPYTFGGGTKLEIK
notes: Murine hybridoma antibody with a kappa light chain
[1]
  FC MFI: 43800
[2]
  FC MFI: 43300
[3]
  FC MFI: 36400
[4]
  % live, FAB-saporin killing assay: 9.63%
[5]
  % live, FAB-saporin killing assay: 9.09%
[6]
  % live, FAB-saporin killing assay: 12.1%

B2: SC93.256 (antibody, IgG2a, V domains shown)
VH: EVKLEESGGGLVQPGGSMKLSCAASGFTFSDAWMDWVRQSPEKGLEWVAEIRSKVNNHETYYAESVKGRFTISRDDSKSSVYLQMNSLRAEDTGIYYCIRNDYFDYWGQGTTLTVSS
VL: DIQMTQTTSSLSASLGDRVTISCSASQGIRNYLNWYQQKPDGTVKLLIYYTSRLHSGVPSRFSGSGSGTDYSLTISNLEPEDIATYYCQQYGKLPYTFGGGTKLEIK
notes: murine, IgG2a
[7]
  FC MFI: 37600
[8]
  FC MFI: 88.3
[9]
  FC MFI: 42600
[4]
  % live, FAB-saporin killing assay: 12.3%
[5]
  % live, FAB-saporin killing assay: 92.4%
[6]
  % live, FAB-saporin killing assay: 12.5%

B3: SC93.267 (antibody, V domains shown)
VH: EVQLQQSGPELVKPGASVRMSCKASGYTFTDYNMYWVKQSLGKSLEWIGYIYPNTGGATYNQKFKGKATLTVNKSSSTAFMELRSLTSEDSAVYYCGRGGLGPFAYWGQGTLVTVSA
VL: DIQMTQSPSSLSASLGGKVTITCRASQDINKFISWYQHRPGKGPRLLIHYASTLQPGIPSRFSGSGSGRDYSFSISNLEPEDIATYYCLQYDNLWTFGGGTKLEIR
notes: Murine hybridoma antibody with a kappa light chain; also called anti-hEMR2 antibody SC93.267
[10]
  ΔgMFI: 898
[11]
  ΔgMFI: 457
[12]
  ΔgMFI: 1610
[13]
  FC MFI: 38700
[14]
  FC MFI: 132
[15]
  FC MFI: 36600
[16]
  ΔgMFI: 475
[4]
  % live, FAB-saporin killing assay: 27.8%
[5]
  % live, FAB-saporin killing assay: 89%
[6]
  % live, FAB-saporin killing assay: 15.6%
[17]
  ΔgMFI: 547
[18]
  ΔgMFI: 2000
